From paper PMC6541275

Biological target: Wild-type Microplasmin (human) (UniProt P00747)
UniProt P00747, sequence (P00747 whole entry): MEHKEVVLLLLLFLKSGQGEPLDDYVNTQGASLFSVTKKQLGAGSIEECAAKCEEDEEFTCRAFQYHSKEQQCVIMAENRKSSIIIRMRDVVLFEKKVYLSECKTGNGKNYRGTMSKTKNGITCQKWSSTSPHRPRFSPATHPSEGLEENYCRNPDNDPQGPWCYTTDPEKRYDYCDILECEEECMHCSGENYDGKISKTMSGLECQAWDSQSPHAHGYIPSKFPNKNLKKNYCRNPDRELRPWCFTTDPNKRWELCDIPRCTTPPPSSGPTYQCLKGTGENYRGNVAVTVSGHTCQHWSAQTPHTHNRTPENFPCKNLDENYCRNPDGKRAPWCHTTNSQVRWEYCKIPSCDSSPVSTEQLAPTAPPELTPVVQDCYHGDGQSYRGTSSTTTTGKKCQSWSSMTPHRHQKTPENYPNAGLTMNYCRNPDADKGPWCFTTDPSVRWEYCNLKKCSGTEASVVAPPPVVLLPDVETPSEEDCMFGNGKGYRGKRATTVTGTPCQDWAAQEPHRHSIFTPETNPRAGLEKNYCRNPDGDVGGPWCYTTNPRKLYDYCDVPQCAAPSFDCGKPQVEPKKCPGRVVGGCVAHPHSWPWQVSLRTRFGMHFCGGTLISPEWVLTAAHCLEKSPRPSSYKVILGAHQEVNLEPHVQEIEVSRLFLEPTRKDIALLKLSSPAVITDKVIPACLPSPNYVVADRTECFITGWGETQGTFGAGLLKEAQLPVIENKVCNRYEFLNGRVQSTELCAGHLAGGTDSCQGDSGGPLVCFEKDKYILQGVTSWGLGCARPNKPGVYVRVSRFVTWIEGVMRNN

B1: α2-antiplasmin (natural protein)
chain: NQEQVSPLTLLKLGNQEPGGQTALKSPPGVCSRDPTPEQTHRLARAMMAFTADLFSLVAQTSTCPNLILSPLSVALALSHLALGAQNHTLQRLQQVLHAGSGPCLPHLLSRLCQDLGPGAFRLAARMYLQKGFPIKEDFLEQSEQLFGAKPVSLTGKQEDDLANINQWVKEATEGKIQEFLSGLPEDTVLLLLNAIHFQGFWRNKFDPSLTQRDSFHLDEQFTVPVEMMQARTYPLRWFLLEQPEIQVAHFPFKNNMSFVVLVPTHFEWNVSQVLANLSWDTLHPPLVWERPTKVRLPKLYLKHQMDLVATLSQLGLQELFQAPDLRGISEQSLVVSGVQHQSTLELSEVGVEAAAATSIAMSRMSLSSFSVNRPFLFFIFEDTTGLPLFVGSVRNPNPSAPRELKEQQDSPGNKDFLQSLKGFPRGDKLFGPDLKLVPPMEEDYPQFGSPK
B1 gave an In vitro half-life of inactivation by α2-antiplasmin: residual amidolytic activity (Chromozym PL, 405nm) of 20nM microplasmin with 60nM antiplasmin, 100mM sodium phosphate pH 7.2, 25°C, 15sec-30 min of 5 min.
